According to the RNAGym collection of RNA variant scans (doi:10.7554/elife.90254):

B1: OR4K15 (parent)
chain: GUUAACGGUCAUAGGCCAUGGAAACUAGGAGCACCAUUUCGCUGCCAGUGAAGAAAUGAACAAAGAAAAUCUGGGCCAGGCAGGCAUCAAAAGAAAUAGUCUUGCGCUCAACCAGAAAGUCUGUAAUCAUUUUAAGGGUA

Variants of: B1
Test: self-cleavage, relative activity (ratio to wild type); higher = more cleavage; in vitro, sequencing; the parent is a self-cleaving ribozyme

Row | Variant | self-cleavage
1 | G7A C40U | 1.81
2 | A5C A36U | 1.59
3 | C6U A64G | 1.46
4 | A5G A126G | 0.69
5 | G7U U103C | 0.65
6 | A5U A33C | 1.62
7 | A5U A33G | 0.69
8 | G7A A140U | 1.62
9 | A5C A134U | 2.1
10 | G7A A89G | 0.61
11 | G7A A110G | 0.11
12 | G7A A110C | 0.23
13 | A5G A110G | 0.15
14 | C6U U100C | 1.18
15 | A5G G80A | 0.43
16 | G7A U122C | 0.84
17 | A5C A33G | 0.87
18 | C6A A64G | 1.24
19 | C6A A110G | 0.08
20 | G7A U131G | 1.7
21 | G7A U131C | 1.36
22 | G8U A23G | 1.93
23 | A5U G138A | 1.71
24 | G8A C77U | 1.72

Row | Variant | self-cleavage
25 | A5G A90C | 1.08
26 | A5G A90G | 1.11
27 | A4U A63G | 0.87
28 | A5G U38G | 1.02
29 | G7A U37C | 2.58
30 | A4G U120A | 1.62
31 | A5G A24G | 1.14
32 | A5G A24U | 0.83
33 | A5U A67U | 0.99
34 | A5U A67G | 1.6
35 | G8A U19A | 1.92
36 | G7A U72C | 0.27
37 | A5U A55U | 1.15
38 | C6U U26A | 0.53
39 | G7C A47U | 1.4
40 | A5G G73A | 0.21
41 | G7A A66G | 1.18
42 | A5G A67G | 0.89
43 | A5G A67C | 0.63
44 | G8A A55G | 2.14
45 | A5U A27G | 2.05
46 | C6A A95G | 0.79
47 | G8A U57A | 2.18
48 | A5U A24G | 1.12

Row | Variant | self-cleavage
49 | A5G U120G | 0.39
50 | G7U A116U | 0.38
51 | A5G A96G | 1.21
52 | C6U A116G | 0.34
53 | A5U U43G | 1.19
54 | A5U U43C | 1.2
55 | A5G A116U | 0.25
56 | A5G U131C | 0.56
57 | A5U U108C | 0.04
58 | A5C A68G | 1.63
59 | G7U A111G | 0
60 | A5G A27U | 0.96
61 | A5G A94G | 1
62 | A5G A94U | 0.8
63 | A5U G21A | 1.25
64 | A5G U124A | 0.54
65 | A5G U124C | 0.58
66 | A5G A118C | 1
67 | A5C A18G | 1.02
68 | A5G A54G | 1.04
69 | A5G A54U | 0.83
70 | A5C A23G | 1.28
71 | A5G A89G | 1.23
72 | A4G U122A | 1.37

Row | Variant | self-cleavage
73 | A5G G15U | 0.82
74 | A5G A62G | 0.59
75 | G8A U133G | 2.78
76 | G7A U124C | 1.03
77 | A5C A66G | 2.49
78 | A4U A56G | 0.98
79 | G7U C77U | 1.9
80 | A5G G7U | 1.05
81 | A5G G7A | 0.91
82 | A5U A96G | 1.12
83 | G7U A135U | 2.23
84 | G7A A116U | 0.33
85 | G7C U72A | 0.38
86 | A5U U103C | 0.83
87 | A4U U108C | 0.09
88 | G8U A94G | 1.98
89 | A5U A140G | 1.09
90 | G8C A64G | 2.95
91 | A5G A47G | 1.37
92 | A5G A47C | 1.22
93 | C6U A56G | 0.64
94 | C6U A94G | 1.68
95 | A5U A30U | 1.11
96 | A5U A69G | 0.36

Row | Variant | self-cleavage
97 | C6U U43C | 1.58
98 | A5C A111G | 0.16
99 | G7A A78G | 0.19
100 | G7A A27G | 1.3
101 | A5G U103C | 0.27
102 | C6U A13G | 1.29
103 | G7A U108C | 0
104 | A4U A24G | 0.76
105 | A5G A111G | 0.08
106 | G7A A64G | 1.18
107 | G8A U9C | 1.16
108 | G8A C35U | 0.52
109 | A5G U139A | 1.6
110 | A5G U139C | 1.1
111 | A5G A78G | 0.43
112 | A5G A78U | 0.46
113 | A5G G48A | 0.77
114 | A5C A95G | 0.99
115 | A5G A86G | 0.63
116 | A5G A86U | 1.27
117 | A5C C105U | 0.08
118 | A4G U124C | 0.5
119 | A4G U124A | 0.48
120 | G7A A90G | 1.26

Row | Variant | self-cleavage
121 | C6U A135G | 2.17
122 | A5G U12C | 1.02
123 | C6U G74A | 0.46
124 | A5U A68G | 0.82
125 | A5U A18G | 1.83
126 | A5U U132C | 1.4
127 | A5U U72A | 0.62
128 | G7U A92G | 1.66
129 | G7U U70A | 1.27
130 | A5G A55G | 1.15
131 | G8A | 1.61
132 | G8C | 1.16
133 | G8U | 1.49
134 | C6U U38C | 1.48
135 | A5C U132C | 1.97
136 | G7A A56G | 1.78
137 | A5U U37G | 1
138 | A5U U37C | 0.72
139 | G7A A82U | 0.14
140 | A5C U108A | 0.07
141 | A5C A56G | 1.05
142 | A5U A95U | 1.76
143 | C6U A69G | 1.05
144 | G7A A117G | 0.51

Row | Variant | self-cleavage
145 | A5G U19C | 0.96
146 | A5G U19A | 0.53
147 | A5G G119U | 1.44
148 | A5G A63G | 1.21
149 | G7U U19C | 1.79
150 | G8A A117G | 2.27
151 | G7A A36U | 1.54
152 | G7A A52G | 1.25
153 | C6A A68G | 1.14
154 | A5U A78G | 0.44
155 | A5U U130C | 0.85
156 | C6U A89G | 1.13
157 | A5C A47G | 1.1
158 | C6U A66G | 1.33
159 | A5G A125G | 0.42
160 | C6G U100C | 0.97
161 | A5U U122A | 1.48
162 | A5G A135G | 2.3
163 | A5G A13U | 0.95
164 | A5G A13G | 0.89
165 | A5U A52G | 1.18
166 | A5U A23U | 1.56
167 | G7U A60U | 2.4
